The text below walks through data of the DeepSol protein solubility set.

The nature of the series: soluble on expression in E. coli; label from the status in PepcDB or PDB records.
With “MSLSKAKTLYEKIYDAHVVVAAPGETPILYIDRHLVHEVTSPQAFDGLREKGRPVRQVSKTFATMDHNVSTTTKDINASGEMARIQMQTLSKNCEEFGVTLYDINHKYQGIVHVMGPELGITLPGMTIVCGDSHTATHGAFGSLAFGIGTSEVEHVLATQTLKQGRAKTMKIEVRGKVAPGITAKDIVLAIIGKTTAAGGTGYVVEFCGEAIRDLSMEGRMTVCNMAIELGAKAGLIAPDATTFNYIKGRKFAPQGSDWDAAVDYWQTLKTDEDAQFDAVVTLEASEIKPQVTWGTNPGQVIAVDEPIPSPSQFADPVERSSAEKALAYMGLEAGKMLSDYKVDKVFVGSCTNSRIEDMRAAAAVAKGKKVASHVQALIVPGSEQVKAQAEAEGLDKIFIEAGFEWRLPGCSMCLAMNNDRLGPGERCASTSNRNFEGRQGRDGRTHLVSPAMAAAAAIAGHFVDIRQEGHHHHHH”, the “soluble on expression in E. coli” value is recorded as “soluble”.

As for “MGSDKIHHHHHHMLESTEKGEVRKTVGNYRLILMNDPNLQGAFRLNMFTDKIDITRDLGWYRESDSLTDVDLKFLVVYLEKHYGLSNEKRIEDVIKVVANENRYHPVLDRINSITWDGRERIRYALHHFLGAEVSEYTYEVMKLFMIGTIARISCPGIKFEVMLCLVGGQGAGKSTFLRFLAMEDDWFTDDLKKMDDDNVYRKIQGHLIIEFPEMVAILNAKNVEDTKSFMSRQKDTYKTPYDRHPKDHKRQCVFAGSSNSLDFLPMDRSGNRRFLPILCNMEEAETHILDDEKTSREYIDQMWAEAMEIYRSGKCQLRLPKEMEKELCEYQKQFMQEDTKKELILDYLEHYEGSMVCSRQLYSEALGNDGNPAQWEIREINDIMNNCSDWIAFSNPRHFPEPYRRQKGWEKPDNRGQDFQPITKEQMEQLSLPPEWMER”, the “soluble on expression in E. coli” value is recorded as “not soluble”.

Regarding “GSHMVTIVRIYLDGVYGIGKSTTGRVMASAASGGSPTLYFPEPMAYWRTLFETDVISGIYDTQNRKQQGNLAVDDAALITAHYQSRFTTPYLILHDHTCTLFGGNSLQRGTQPDLTLVFDRHPVASTVCFPAARYLLGDMSMCALMAMVATLPREPQGGNIVVTTLNVEEHIRRLRTRARIGEQIDITLIATLRNVYFMLVNTCHFLRSGRVWRDGWGELPTSCGAYKHRATQMDAFQERVSPELGDTLFALFKTQELLDDRGVILEVHAWALDALMLKLRNLNVFSADLSGTPRQCAAVVESLLPLMSSTLSDFDSASALERAARTFNAEMGV”, the “soluble on expression in E. coli” value is recorded as “soluble”.

In the case of “MLLKSIHHIAIICSDYEKSKAFYVHKLGFQVIQETYREERGSYKLDLSLNGSYVIELFSFPDPPERQTRPEAAGLRHLAFTVGSLDKAVQELHEKGIETEPIRTDPLTGKRFTFFFDPDQLPLELYEQ”, the “soluble on expression in E. coli” value is reported as “not soluble”.

As for “MLRFVAILQFILLLLLIFSCNADEAKCTIKPYEAKGDKSPGSNGYVIEINGTTTKSMDISKGFVPGEIYKVSIRGWRTQYTVKTFRGFVVSSLFEDNTSAGSWQVVKGHGDARISPGCRQSGVSHANLKSKTSVHMMWKAPEVSSGCVVFRASVIETKYIWFTEAEGLTVKLCIQKGTQILKPVDDPSATCCACDIAQYDLEFTGIWSKNTHPKDYPTLEHLTHFTDMLGSSHSSNYSLWTIGGISTDGMKEIAEWGNTYKAEAEAKAKASEVRSLMKVKGLWFPDVQGTTKSQFVVNKYHHFVSLATMFGPSPDWCVGLSSVNLCLPDCTWAEERTFELQPFDAGTDSGPTYMSPNEPTEPREPIHWITTKLNPLSPFYNSKSDTIPTLAKVILRRKNVTSSECKSDDILKAEAHNITNTSEDEEYKDRRECMMTQWEPWSLCSATCGKGIRIRSRVYVFPIKAQVFHCHRQTTEKQFCNAKINECENSEAFSSKCQVSSWGSWGECSVQCGHGMRSRNRTFLNPATKSGDCSVDLERKDICVGENGDDCNVTPDPLCKTTAWSDWSPCSASCDEGVRVRTRLFFYSEHEKRCMHVNLQEKDTCVMQSCRRFIEINSEEICQEDKQAGQCAGNFPRYWYNHEKTQCERFIFTGCKGNRNQFETEEECKQICLPGYEKSKSLIPNNQLLEDFGNTEVDDGGERVDCEVSKWTAWGSCSVSCGRGKKSRSRHVVKLARNGGHQCSEHLMQELQCRLRPCPVKLTCQVGPWSRWSPCSVSCGEGSQTRRRRVVRARNDDWEEIECDDAETEVRQCTGRHQC”, the “soluble on expression in E. coli” value is on record as “not soluble”.

Turning to “MGSDKIHHHHHHMKKGFSALVEHNGYRVLVDTGTDGKILLNNMEGLGIDPNSIDALFLTHGHYDHTGGIAELLKARKDTLDVYAHPRIFEKRIALKPKRRDIGIPFSQEELESLGAIFHLNDKALEFLPGLISSGEIKRETWDRAVGYLLNNEKDPVRDDMALLIDLGDKIAVITGCGHSGILNIAKHAVEISKKPIRALIGGFHLRGASITILEDAVRGLKELNVEMLYPGHCTGIDEYAYLRMKLKAEHLNVGKEIVIK”, the “soluble on expression in E. coli” value is recorded as “not soluble”.

Consider “MAHHHHHHMITMECITKKIKTIFQNSIQKCFPSISEDAIVTYANLKFGHYQCNNAINIYKKYGKELNYENAQKISEFIISNINETIFEEIKSSPQGFITVKLSKDYIETSLKKLFNGEKIDISININDIKESNENYGNVLVDFSSPNIAKEMHVGHLRSTIIGDSICRVFEFLKINTHRVNHVGDWGTQFGMIINYIKTHYPNFKEEMPDLSNLTSLYQESKKMYDADKEFEKSSKENAIKLQNNDEDCKFVWNKLCESSKKEFDKLYNILDIKLEYVGESFYVPMLSTVLDLLKESKLLTNIGDAICYQSENFKVPLFLQKSNGGYGYDSTDVAALYYRLTQLNCNCVIYVTDIGQLTHFETIFDLIKKTNWGDKNAKLMHVGFGFVLNEDNKKFKTRSGTTVKLINLIKEGTERAKRDLLQRIETKSEEEKSYFENVDIDQLSESLCVSAIKYFDLKQHRNSDYKFSYDNMLNVKGNTGIYIIYGYSRICSIFRKSTINVEDISKDELSLTSIYEINLGLHILKFPDIFYYILKNMLVHKLAEYMYDLTTTFTAFYENCKVLNNENEKSRLLLCSITKSLLKLCMELLGMKPIEKL”, for which the “soluble on expression in E. coli” value is recorded as “soluble”.
